Key:
[1] = target: T1, human low-density lipoprotein receptor related protein 5 (LRP5) (human, UniProt O75197 32-1615); assay: cell binding to HEK 293 cells stably overexpressing human LRP5, time resolved fluorescence of europium label
T1 construct: whole, on cells; also called human LRP5

[2] = target: T1, human low-density lipoprotein receptor …; assay: competition with rhDkk-1-GFP fusion protein for binding to LRP5 on HEK 293 cells, fluorescence imaging (INCell 3000)
Protocol: The rhDkk-1-GFP fusion protein-LRP5 binding assays were as follows. Recombinant HEK-293 cells stably overexpressing human LRP5 were plated into the wells of a 384-well tissue culture plate (Corning) at a concentration of about 6,000 cells/well. Each well contained 45 μL of phenol red-free DMEM containing 2.5% FBS. To each well, an analyte was added to give a final concentration of 15 μM. A minute later, 5 μL of conditioned medium containing rhDkk-1-GFP and 10 μM DRAQ5 nuclear stain is added to each well and the wells incubated at 37 °C for 25 minutes. Imaging and evaluation of rhDkk-1-GFP fusion protein binding to the recombinant cells overexpressing LRP5 was determined using an INCell 3000 imager (Amersham, Piscataway, N.J.).

[3] = target: T1, human low-density lipoprotein receptor …; assay: competition with Eu-rhDkk-1 for binding to human LRP5 on HEK 293 cells, time resolved fluorescence
Protocol: The rhDkk-1-LRP5 binding assays were carried out as follows. The recombinant HEK 293 cells stably overexpressing human LRP5 were plated into the wells of white/white, 384-well, PDL plates (BD Biosciences, San Jose, Calif.). Each well contained about 10,000 cells and 30 μL of medium containing 2.5% FBS. The next day, to each well, 250 nL of an analyte was added (high concentration copy, CyBi Disk) for final a concentration of about 30 μM. Next, 5 μL of Eu-rhDkk-1 (1 nM) was added to each of the wells (CyBi Well, 0.1 nM final concentration). After incubating at 37° C. for 30 minutes, the wells were washed four times each with a wash solution (Tris-buffered saline, pH 8.0) containing 0.02% Tween-20). After the final wash, 20 μL of Enhancement Solution (Perkin Elmer) was added to each of the wells. After incubating the wells in Enhancement Solution for 30 minutes at room temperature, the wells were vortexed and the time resolved fluorescence from the wells read using the […], a CCD-based optical imaging instrument that can measure fluorescence (Amersham Biosciences, Piscataway, N.J.).

T1 sequence (O75197 32-1615): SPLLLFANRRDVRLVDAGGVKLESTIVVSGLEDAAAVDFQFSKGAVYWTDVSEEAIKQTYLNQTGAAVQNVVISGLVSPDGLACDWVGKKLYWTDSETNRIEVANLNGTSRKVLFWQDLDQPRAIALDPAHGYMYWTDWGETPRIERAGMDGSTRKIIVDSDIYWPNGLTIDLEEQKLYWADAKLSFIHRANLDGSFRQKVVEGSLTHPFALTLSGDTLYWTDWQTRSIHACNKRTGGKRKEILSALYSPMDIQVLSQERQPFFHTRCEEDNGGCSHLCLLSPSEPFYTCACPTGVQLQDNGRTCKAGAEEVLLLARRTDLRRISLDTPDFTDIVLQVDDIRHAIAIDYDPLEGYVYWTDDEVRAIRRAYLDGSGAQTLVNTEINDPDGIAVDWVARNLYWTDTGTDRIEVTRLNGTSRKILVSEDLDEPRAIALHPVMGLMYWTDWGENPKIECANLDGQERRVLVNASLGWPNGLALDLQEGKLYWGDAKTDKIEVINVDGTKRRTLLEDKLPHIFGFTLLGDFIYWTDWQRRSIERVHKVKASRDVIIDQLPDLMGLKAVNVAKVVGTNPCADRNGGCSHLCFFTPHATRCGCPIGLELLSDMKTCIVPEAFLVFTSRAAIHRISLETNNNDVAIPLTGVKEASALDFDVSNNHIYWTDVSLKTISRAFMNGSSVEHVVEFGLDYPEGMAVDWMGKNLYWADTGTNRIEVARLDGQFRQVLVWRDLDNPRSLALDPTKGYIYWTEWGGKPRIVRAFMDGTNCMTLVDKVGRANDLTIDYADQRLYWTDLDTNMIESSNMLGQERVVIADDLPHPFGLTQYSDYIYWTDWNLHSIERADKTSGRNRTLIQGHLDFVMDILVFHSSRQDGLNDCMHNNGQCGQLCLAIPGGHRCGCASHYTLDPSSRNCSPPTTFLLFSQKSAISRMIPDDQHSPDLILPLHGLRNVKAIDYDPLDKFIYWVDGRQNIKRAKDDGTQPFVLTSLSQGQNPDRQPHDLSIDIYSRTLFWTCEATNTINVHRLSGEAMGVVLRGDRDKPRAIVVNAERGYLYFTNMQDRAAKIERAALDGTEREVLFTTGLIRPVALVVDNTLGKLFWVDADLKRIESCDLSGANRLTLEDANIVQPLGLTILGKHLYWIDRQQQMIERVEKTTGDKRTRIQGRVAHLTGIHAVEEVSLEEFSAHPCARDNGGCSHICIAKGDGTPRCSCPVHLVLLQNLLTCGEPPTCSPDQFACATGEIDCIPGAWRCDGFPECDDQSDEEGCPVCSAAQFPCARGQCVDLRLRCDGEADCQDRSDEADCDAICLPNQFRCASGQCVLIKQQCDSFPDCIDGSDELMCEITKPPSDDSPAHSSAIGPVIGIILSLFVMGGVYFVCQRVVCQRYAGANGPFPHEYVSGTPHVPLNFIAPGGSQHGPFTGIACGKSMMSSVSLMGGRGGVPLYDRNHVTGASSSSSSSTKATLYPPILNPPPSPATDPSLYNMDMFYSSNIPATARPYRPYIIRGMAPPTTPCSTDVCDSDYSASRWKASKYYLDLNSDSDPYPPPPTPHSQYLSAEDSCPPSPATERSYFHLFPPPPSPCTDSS

Binder | Kd [1] [nM] | IC50 [2] [nM] | IC50 [3] [nM]
rhDkk-1 comprising a polyhistidine sequence at the carboxy terminus, labeled with europium chelate N1-isothiocyanate (Eu-rhDkk-1) (ligand, not shown: small tags and cut ends, labeled with europium chelate N1-isothiocyanate, about 9 Eu molecules per protein (sites not given), Produced in baculovirus-infected insect cells and purified on a nickel column; also called labeled RhDkk-1 protein; polyhistidine-tagged RhDkk-1) TLNSVLNSNAIKNLPPPLGGAAGHPGSAVSAAPGILYPGGNKYQTIDNYQPYPCAEDEECGTDEYCASPTRGGDAGVQICLACRKRRKRCMRHAMCCPGNYCKNGICVSSDQNNFRGEIEETITESFGNDHSTLDGYSRRTTLSSKMYHSKGQEGSVCLRSSDCATGLCCARHFWSKICKPVLKEGQVCTKHRRKGSHGLEIFQRCYCGEGLSCRIQKDHHQASNSSRLHTCQRH | ~1 | – | –
rhesus monkey dickkopf-1 (rhDkk-1), unlabeled competitor (ligand) TLNSVLNSNAIKNLPPPLGGAAGHPGSAVSAAPGILYPGGNKYQTIDNYQPYPCAEDEECGTDEYCASPTRGGDAGVQICLACRKRRKRCMRHAMCCPGNYCKNGICVSSDQNNFRGEIEETITESFGNDHSTLDGYSRRTTLSSKMYHSKGQEGSVCLRSSDCATGLCCARHFWSKICKPVLKEGQVCTKHRRKGSHGLEIFQRCYCGEGLSCRIQKDHHQASNSSRLHTCQRH | – | ~1 | ~0.2
